In patent US20250074972A1, “ANTIBODIES AND METHODS FOR GENERATING THE SAME” (priority 2021, published 2025):
“Also recorded” adds a separate entry of the source.

Experiments:
[1] = test system: Candida albicans strain SC5314; assay: Mouse model of disseminated Candidiasis, Study 3; type: in vivo; conditions: 1 mg/kg at 24 h and 72 h post-infection; day 7
Description: In study 3, the protective effect of mAb 1B11 as a prophylactic agent with single dosing 3 hours before infection followed by two dosing 24 h and 72 h post infection was investigated.
In addition, a treatment only arm with the administration of 1B11 mAb 24 h and 72 h post infection was also included.
Animals were allocated into four main groups as explained below. The treatment dose of 1B11 mAb was 12.5 mg/kg per mouse. All treatments were administered intraperitoneally (IP) in 200 μl saline.
The study plan is shown in FIG. 19 and is as follows: • Group 1—Pre-treatment with 1B11 mAb at 3 h before infection, followed by treatment at 24 h and 72 h post-infection. • Group 2—Injected with saline at 3 h before infection, treatment with 1B11 at 24 h and 72 h post-infection. • Group 3—Saline injections at all three time points • Group 4—caspofungin treatment (1 mg/kg) at 24 h and 72 h post-infection
Mice were monitored and weighed every day and were culled on day 7 post-infection and the kidneys removed aseptically. Kidneys were split […], with one half of each kidney used to determine burdens, one half frozen on OCT and one half fixed in formalin at 4° C. Burdens were determined by plating out kidney homogenate and counting colonies after 48 h growth at 30° C. Statistical comparisons were carried out using IBM SPSS version 24. […]

C. albicans (SC5314) = assay: Galleria mellonella infection model, C. albicans; type: in vivo, Candida albicans; conditions: for survival of larvae: Galleria mellonella infected with 5×10^5 C. albicans, monitored 60 h, Mantel-Cox p<0.0001
Description: (§1) Galleria mellonella is a reliable infection model to test and compare antibody efficacy by monitoring the survival of the larvae. Ten Galleria mellonella larvae (Livefoods Direct Ltd, Sheffield, UK) with bodyweights of =250-300 mg were used for each test group and standardised inoculum of 5×10^5 C. albicans and 5×10^7 C. auris yeast cells/larvae were injected using Hamilton syringe (Cole-Parmer, UK, washed twice with 100% ethanol and sterile dH2O between every 5 injections) via the last pro-leg. Two control groups, one with no injection and the second with PBS injection were also set up. After injection, larvae were incubated for 48-60 h at 37° C. Survival was monitored first after 24 h and then every 6 h. A Kaplan-Meier plot was generated to assess the survival of larvae infected with C. albicans and C. auris, monitoring the survival rate for 60 h (FIG. 8).
(§2) In addition, the fungal burden of various test groups was calculated by measuring the number of colony forming units (CFU) as an indicator of fungal growth within the larvae and early fungicidal/fungistatic activity of the antibody. […] (FIG. 9A).

[2] = test system: Candida albicans strain SC5314; assay: Mouse model of disseminated Candidiasis, Study 1; type: in vivo; conditions: caspofungin 1 mg/kg at 24 h post-infection; p=0.004
Description: In study 1, the protective effect of mAb 1B11 as a prophylactic agent with single dosing before and after the administration of fungal inoculum was investigated. Female BALB/c mice, 7-9 weeks old were purchased from Envigo Ltd. and randomly assigned to groups of 6 for treatment and control. The Candida albicans inoculum was prepared by growing strain SC5314 in NGY medium for 16 h, shaking at 30° C. Cells were harvested and washed with saline, then counted and resuspended in saline to provide an inoculum of approx. 2×10^4 CFU/g mouse body weight in 100 μl. Mice were infected intravenously.
Actual inoculum level was determined by plating dilutions of the inoculum on Sabouraud dextrose agar and incubating overnight at 30° C. It was determined to be 2.2×10^4 CFU/g mouse body weight.
Animals were allocated into four main groups as explained below. The treatment dose of 1B11 mAb was 15 mg/kg per mouse. All treatments were administered intraperitoneally (IP) in 150 μl saline. […]
Mice were monitored and weighed every day and were culled on day 4 post-infection and the kidneys removed aseptically. […] Burdens were determined by plating out kidney homogenate and counting colonies after 48 h growth at 30° C. […]

[3] = test system: cell lysates of pga314 mutant strain; assay: Pga31 scAbs binding ELISA on cell lysates of pga31 mutant strain; set-up: species or system Candida albicans; conditions: with or without 0.032 μg/ml caspofungin
Description: (§3) The reaction was stopped using 1 M H2SO4 and the absorbance values measured using a microplate reader at absorbance 450 nm. For total cell lysate ELISA, C. albicans WT and pga31 single mutant strain overnight cultures were inoculated into fresh YPD at OD600 nm of 0.1-0.2, grown for 3-4 h at 30° C. until OD of 0.5-0.6 was reached and then treated with caspofungin (0.032 μg/ml) for 90 min. After 90 min growth cells were harvested, centrifuged for 5 min at 4000 rpm and washed and cell lysate was prepared. This was used to coat ELISA plates at 37° C. for 1 h, plates were washed and blocked with 2% MPBS as before, followed by the two-fold serial dilution of scAb samples.

C. auris (1716) [4] = assay: Biofilm formation assay (crystal violet), C. auris; type: cell-based, Candida auris
Description: (§4) The ability of 1B11 scAb in preventing the formation of biofilm in C. albicans ([…]) and C. auris (1716) was tested. The growth medium used were RPMI and 20% Foetal Calf Serum (FCS) and the assay was carried out in 96 well microtitre plates. Test antibody 1B11 scAb at a starting concentration of 160 μg/ml was double diluted down the plate and the top row served as positive control with cells only. The final number of cells added to each well was kept constant at 1×10^5/ml and the plate was incubated at 37° C. for 24 h. Following incubation, the biofilm plate was gently washed two times with PBS to remove non-adhering cells and allowed to dry at room temperature overnight. The biofilm was stained with 100 μl 0.05% crystal violet for 20 min followed by washing with Millipore Q water and 200 ul of 100% ethanol. Contents of each well were transferred to a new plate and absorbance was read at 570 nm wavelength.

[5] = test system: total cell lysates of WT C. albicans (SC5314); assay: Pga31 scAbs binding ELISA on total cell lysates of WT C. albicans treated with or without caspofungin; set-up: species or system Candida albicans; conditions: absorbance 450 nm, cells treated or untreated with 0.032 μg/ml caspofungin
Description: as §3

C. albicans (SC3514) = assay: Biofilm formation assay (crystal violet), C. albicans; type: cell-based, Candida albicans
Description: as §4

C. auris (1716) [6] = assay: Galleria mellonella infection model, C. auris; type: in vivo, Candida auris; conditions: for survival of larvae: Galleria mellonella infected with 5×10^7 C. auris, monitored 60 h, versus non-treated, Mantel-Cox p<0.0001
Description: as §1, §2

[7] = at higher concentrations (start 160 μg/ml, double diluted), 24 h incubation

CC[C@H](C)C[C@H](C)CCCCCCCCC(=O)N[C@H]1C[C@@H](O)[C@@H](NCCN)NC(=O)[C@@H]2[C@@H](O)CCN2C(=O)[C@H]([C@H](O)CCN)NC(=O)[C@H]([C@H](O)[C@@H](O)c2ccc(O)cc2)NC(=O)[C@@H]2C[C@@H](O)CN2C(=O)[C@H]([C@@H](C)O)NC1=O [caspofungin, reference compound]
kidney burdens, caspofungin group compared to saline treated group [1]: highly significant difference
survival of larvae (C. albicans (SC5314)): significant survival percentage; also recorded: only had marginal effect
kidney organ burdens compared to saline treated mice [2]: significant decrease

B1: 1B11 scAb: anti-Pga31 single chain antibody from naive human library; amino acid sequence SEQ ID NO: 2 (protein)
scFv: EVQLLESGGGVVQPGRSLRLSCAASGFTFSSYGMHWVRQAPGKGLEWVAVISYDGSNKYYADSVKGRFTISRDNSKNTLYLQMNSLRAEDTAVYYCARDRSGWGSLDYWGQGTLVTVSSLEGGGGSGGGGSGGGASDIVMTQSPDSLAVSLGERATINCKSSQNVLYSSNNKNYLAWYQQKSGQPPKLLIYWASTRESGVPDRFSGSGSGTDFTLTISSLQAEDVAVYYCQQYYSTPRTFGQGTKVEIK
modifications: 1B11 Amino Acid Sequence
scAb binding to mutant strain lysate [3]: lack of scAb binding
C. auris growth under biofilm-inducing conditions (C. auris (1716) [4]; 24 h, RPMI or 20% FCS): did not significantly inhibit C. auris growth under biofilm-inducing conditions except at the highest concentration tested
biofilm formation (C. auris (1716) [4]; [7]): able to inhibit biofilm formation
biofilm biomass (crystal violet) compared to the control (C. auris (1716) [4]; both RPMI and 20% FCS conditions, T-test, p<0.0001, p<0.0004): significantly different
survival of larvae (C. albicans (SC5314)): significant survival percentage
fungal burden (colony forming units) in larvae (C. albicans (SC5314); versus non-treatment group, statistically significant in 24 h group): lower level of growth inhibition
scAb binding to lysates of caspofungin treated versus untreated cells [5]: increase in scAb binding
C. albicans growth under biofilm-inducing conditions (C. albicans (SC3514); 24 h, especially in 20% foetal calf serum): significantly inhibited
biofilm biomass (crystal violet) compared to the control (C. albicans (SC3514); RPMI conditions, T test, p<0.0001): significantly different
biofilm formation (C. albicans (SC3514); [7]): able to inhibit biofilm formation
fungal burden (colony forming units) in larvae (C. auris (1716) [6]; 4 h and 24 h incubation, versus non-treatment group): inhibited; also recorded: notable inhibition of growth
survival of larvae (C. auris (1716) [6]): significant survival percentage
survival of larvae (C. auris (1716) [6]; listed as anti-Pga31 antibody): survived significantly more
